Tests used:
[1] = target: T1, ParT (Streptomyces coelicolor A3(2) (plasmid SCP2)) (UniProt Q8VWE5); test: BLI; conditions: BLI: 100 mM Tris-HCl pH 8, 150 mM NaCl, 1 mM MgCl2, 0.005% Tween-20, temperature not given
T1 sequence: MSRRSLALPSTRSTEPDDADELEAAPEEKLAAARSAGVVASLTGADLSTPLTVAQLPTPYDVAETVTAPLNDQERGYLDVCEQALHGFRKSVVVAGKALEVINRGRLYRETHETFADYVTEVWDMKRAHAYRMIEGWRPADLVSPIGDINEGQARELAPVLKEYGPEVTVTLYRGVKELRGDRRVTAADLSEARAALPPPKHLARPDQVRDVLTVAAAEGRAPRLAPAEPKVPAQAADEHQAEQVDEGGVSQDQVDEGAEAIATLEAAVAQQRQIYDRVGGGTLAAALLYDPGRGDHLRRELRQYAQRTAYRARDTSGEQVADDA

[2] = target: T1, ParT (Streptomyces coelicolor A3(2) (plasmid SCP2)); test: SPR; conditions: 4 C; kinetics; DNA fragment assumed as in BLI; BLI: 100 mM Tris-HCl pH 8, 150 mM NaCl, 1 mM MgCl2, 0.005% Tween-20, temperature not given; SPR at 4 C on Biacore 8K
[3] = tested on: ParT (G87P) (Streptomyces coelicolor A3(2) (plasmid SCP2)); test: BLI; conditions: BLI: 100 mM Tris-HCl pH 8, 150 mM NaCl, 1 mM MgCl2, 0.005% Tween-20, temperature not given; SPR at 4 C on Biacore 8K
ParT [4] = target: T2, ParT (Streptomyces coelicolor A3(2) (plasmid …, UniProt Q8VWE5 1-325)); test: BLI; no NTP; equilibrium analysis; BLI: 100 mM Tris-HCl pH 8, 150 mM NaCl, 1 mM MgCl2, 0.005% Tween-20, temperature not given; SPR at 4 C on Biacore 8K; conditions: protein: recombinant; tags: C-terminal His6; chain copies: 2; label: 5' biotin on strand 1 (BLI); blunt
T2 sequence: T1 sequence

[5] = target: ParA-His6, ParA of plasmid SCP2 (Streptomyces coelicolor)
[6] = target: the molecule itself; test: not stated; apo-ParT in solution (SI Appendix, Fig. S8A); the method is not told in the main text
ParT [7] = target: T2, ParT; test: BLI; up to 2 uM ParT; BLI: 100 mM Tris-HCl pH 8, 150 mM NaCl, 1 mM MgCl2, 0.005% Tween-20, temperature not given; SPR at 4 C on Biacore 8K; conditions: protein: recombinant; tags: C-terminal His6; chain copies: 2; label: 5' biotin on strand 1 (BLI); blunt

With 40-bp parS+10 duplex the Kd ([1]; no NTP, equilibrium analysis, SPR at 4 C on Biacore 8K) was 580 nM and the Kd [2] was 730 nM.

With 180-bp parS DNA cut with BamHI or EcoRI the binding signal (fraction of closed-loop signal) ([1]; 1 uM ParT, free DNA end by BamHI or EcoRI, SPR at 4 C on Biacore …) was 0.2 and the binding signal (fraction of closed-loop signal) [3] was 1.

B1: 40-bp parS duplex (dsDNA)
DNA 1: GGCCGACCTCGTGTCTCCAATTGGAGACATCAACGAGGGC
DNA 2: GCCCTCGTTGATGTCTCCAATTGGAGACACGAGGTCGGCC
B1 was tested, and the Kd (ParT [4]) was 680 ± 200 nM.

B2: biotinylated ParT (WT), ParB-like protein of plasmid SCP2 (natural protein)
chain: T1 sequence
modifications: biotin (site and way of biotinylation not stated)
Work on B2 yielded an ATPase activity of 0.5 µM ParA with ATP, nonspecific DNA and ParT in increasing molar excess (ATP/ParA/hour) [5] of 6.

B3: ParT (WT), purified, unlabelled (natural protein, Streptomyces coelicolor, UniProt Q8VWE5 1-325, looked up)
chain: T1 sequence
notes: ParT (SCP2.04c), ParB-like protein encoded on plasmid SCP2 of Streptomyces coelicolor, UniProt Q8VWE5; the rows with itself tell the dimer; also called apo-ParT; SCP2.04c; source: purified
In the case of B3, the “stoichiometry N” value [6] is reported as 2.

B4: 40-bp scrambled parS duplex (dsDNA)
DNA 1: ATCGGGCACCTTAGGGCAATCGTAAGTTCGGCGCACGACC
DNA 2: GGTCGTGCGCCGAACTTACGATTGCCCTAAGGTGCCCGAT
B4: no binding (ParT [7]).

Reference: publication PMC12260392, “Expanding the diversity of bacterial DNA partitioning: A CTP-independent ParABS system for plasmid partitioning in Streptomyces” (Proceedings of the National Academy of Sciences of the …, 2025)
